Target: SNAP-tagged human melanocortin-4 receptor (SNAP-MC4R) (human) (UniProt P32245)
Chain of UniProt P32245 (P32245 whole entry): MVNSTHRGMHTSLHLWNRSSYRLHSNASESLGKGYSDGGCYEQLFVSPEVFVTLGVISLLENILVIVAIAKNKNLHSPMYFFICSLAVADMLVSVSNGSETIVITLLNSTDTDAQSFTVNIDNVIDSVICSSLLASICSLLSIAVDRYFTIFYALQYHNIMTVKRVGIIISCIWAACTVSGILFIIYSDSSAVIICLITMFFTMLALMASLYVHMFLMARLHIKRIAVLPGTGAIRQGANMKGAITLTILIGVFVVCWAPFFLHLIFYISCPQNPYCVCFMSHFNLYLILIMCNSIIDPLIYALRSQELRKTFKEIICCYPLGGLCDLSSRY

## α-MSH (peptide)
  EC50 of α-MSH-stimulated cAMP production (Epac-S^H187 FRET biosensor, HEK293), MC4R + mock: 4.5 nM
  EC50 of α-MSH-stimulated cAMP production (Epac-S^H187 FRET biosensor, HEK293), MC4R co-expressed with MRAP2 (1 + 1 or 1 + 4): 1.3 nM

— paper PMC12462500
